This is an account of results in PMC4571306 (Molecular Biology of the Cell, 2015).

The chains are these.
T1: GST-Kxd1 (S. cerevisiae, UniProt P53158 1-218)
T1 sequence (looked up): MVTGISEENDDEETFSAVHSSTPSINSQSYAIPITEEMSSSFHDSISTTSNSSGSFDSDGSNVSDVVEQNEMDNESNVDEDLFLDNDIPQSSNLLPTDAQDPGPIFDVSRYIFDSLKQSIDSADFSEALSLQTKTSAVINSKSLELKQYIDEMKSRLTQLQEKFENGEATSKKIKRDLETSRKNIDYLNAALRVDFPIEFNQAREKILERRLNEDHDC

B1: Vab2-GST (natural protein)
chain: MVADLTKGILKWKSRIEFDAVGSSSYYEELKGLPPLASHKKLTQAAIFNSTKYELLQVKKDILSIYEVVSRDIDEERNQMQQIELQLKKSLKKVEHSYKNVLKQRASTNCINGNDRLLANAEKKIGSLNEELACVNDIVSDIVNNLTALNANLPKKAQLLKDDSINVAHYPLLFDFLHKSCPKSIIATSEASIHENASPSPLLEHDELPAESINSFYGENELQSDSLAPLQTHDDNISSCKKILPPKFNTTSGPSIETNFENISADGLTYTKCSLKNSISLT
B2: HS-Cnl1 (natural protein, S. cerevisiae, UniProt Q06333 1-122, looked up)
chain: MQDNSSHSRESASAGDDPLGIDKLTVDYDYLLYKMRDYVQSIQLDTTELCKKQNEVMVNGIIENTIDKNIAKFKELLEKCDTLENHYEMLNQLAIITDTFKERIAEAVNNYNSLKKGASKSK
B3: HS-Bli1 (natural protein, S. cerevisiae, UniProt P35727 1-113, looked up)
chain: MGEQNKLYYDVEKLVNSLQESFDLDCAQSVSLFTSKSRSNEAWLEELENKFKLKDDVELDDVENLRAEIDMKLNMLEDKVSYYERLYKELEEFQNEIKIKTVVNNRRQSRTPK
B4: GST-Bli1 (natural protein, S. cerevisiae, UniProt P35727 1-113, looked up)
chain: B3 chain

Common to all, as to assay: pull-down
One assay deals with HS-Snn1 (S. cerevisiae, UniProt P48232 1-102).
The target in another assay is T1, GST-Kxd1.
In the assay “Vab2-GST” the target is B1.
Another assay concerns the target GST-Snn1 (S. cerevisiae, UniProt P48232 1-102).
The assay “HS-Cnl1” deals with B2.

On to B1, for which the binding result with HS-Snn1 was “binds”.

B2: the binding result with GST-Kxd1 was “binds”. For B3, the binding result with Vab2-GST and with GST-Snn1 was “binds” in each case. As for B4, in the assay with HS-Cnl1, the binding result is “binds”.
